The values that follow come from patent US9090686B2, “Antibodies for the treatment of HIV” (Pierre Fabre Medicament, priority 2009, dated 2015).

For assay [1], the target named is T1, human CXCR4 (Homo sapiens, UniProt P61073). Description: FACS binding to NIH3T3-hCXCR4 transfected cells. The following applies: for binding to human CXCR4-NIH3T3 transfected cell line (in words): FACS; for NIH3T3-CXCR4 (MFI): Mab 10 μg/ml, Mean Fluorescence Intensity by FACS. Further details: expressed in transfected cells; host or cells: NIH3T3 (mouse fibroblasts). The protocol: In this experiment, the specific binding to human CXCR4 (hCXCR4) of anti-CXCR4 Mabs 515H7 and 301aE5 was examined by FACS analysis.
NIH3T3 and NIH3T3-hCXCR4 transfected cells were incubated with 10 μg/ml of monoclonal antibodies 515H7 and 301aE5. The cells were then washed with 1% BSA/PBS/0.01% NaN3. Next, Alexa-labeled secondary antibodies were added to the cells and were allowed to incubate at 4° C. for 20 min. The cells were then washed again two times. Following the second wash, FACS analysis was performed.
NIH3T3-hCXCR4 transfected cells were incubated with a dose range of monoclonal antibody c515H7 from 0 μg/ml to 10 μg/ml. The cells were then washed with 1%BSA/PBS/0.01% NaN3. Next, Alexa-labeled secondary antibodies were added to the cells and were allowed to incubate at 4° C. for 20 min. The cells were then washed again two times. Following the second wash, FACS analysis was performed.
NIH3T3, NIH3T3-hCXCR4 transfected were incubated with 0 to 10 μg/mL of humanized Mabs 515H7 (hz515H7 VH1 D76N VL2, hz515H7 VH1 D76N VL2.1, hz515H7 VH1 D76N VL2.2, hz515H7 VH1 D76N VL2.3) for 20 min at 4° C. in the dark in 100 μl Facs buffer. After 3 washing in Facs buffer, cells were incubated with the secondary antibody, a goat anti-human Alexa 488 (dilution 1/500), for 20 minutes at 4° C. in the dark. After 3 washing in Facs buffer, propidium iodide was added in each well and only viable cells were analyzed by Facs. At least 5000 viable cells were assessed to evaluate the mean value of fluorescence intensity for each condition.
A general note: In flow cytometry, cells or beads pass a laser one at a time.

Assay [2] has as its target T1, human CXCR4. Description: SDF-1-induced calcium release in CHO-CXCR4 cells. The assay is classed as cell-based. On the set-up: expressed in transfected cells. The note with it: Mab 133 nM, SDF-1 100 nM. The text has this:
This functional assay was designed to monitor CXCR4 receptor signaling via stimulation of the phospholipase C pathway, inducing calcium liberation from intracellular stores from the endoplasmic reticulum.
CHO-K1 cells, stably and constitutively expressing human CXCR4 receptor were obtained upon transfection of naïve CHO-K1 cells (ATCC CCL-61) with a mammalian expression vector carrying the whole coding sequence of human CXCR4 receptor (RefSeq NM_003467). Cells were propagated in complete culture medium [DMEM-Ham's F12 supplemented with 5% fetal calf serum (FCS) and 500 μg/ml of geneticin]. Cells were plated in black 96MW plates at a density of 100,000 cells/well in appropriate culture medium. Cells were starved overnight before conducting the experiments. Cells are loaded with the fluorescent calcium dye (Fluo-4 No Wash, Invitrogen US) in loading buffer [HBSS 1×, HEPES 20 mM, Probenicid acid 25 mM] for 30 min. at 37° C. followed by 30 min. at 25° C. Stimulation by SDF-1 was performed by direct injection into each well. For antagonism experiments, 10 μl of Mab solution are added directly into the loading buffer at least 10 min. before SDF-1. Kinetic fluorescence measurements are performed on a multi-mode fluorescence microplate reader Mithras LB940 (Berthold) using the following settings: excitation at 485 nm, emission at 535 nm, excitation energy at 10000 arbitrary units. Fluorescence in each well is recorded during 0.1 second every second and for a time period of 20 sec. prior SDF-1 injection (basal signal). Then 20 μl of SDF-1 are injected and data recording follows for a time period of 2 min. Each experimental condition is performed in duplicate. Values for each well are first corrected by subtracting the basal fluorescence and the fluorescence emitted by a control well without cells. Relative data are expressed as a percentage of the maximal stimulation obtained by SDF-1 (100 nM).

Assay [3] concerns HIV-1 X4 primary isolate MN. Description: Single cycle neutralization assay in human PBMC, isolate MN. The assay is classed as cell-based. Further details: MN % inhibition of infected cells 90 / MN % inhibition of infected cells 80: unit not given here. The following applies: for MN % inhibition of infected cells 80: IC for 80% inhibition; for MN % inhibition of infected cells 80 / MN % inhibition of infected cells 90: human PBMC; for MN % inhibition of infected cells 90: IC for 90% inhibition. The protocol: This assay is performed in 36 h using primary isolates KON, MN and 92UG024 concentrated and diluted accordingly to allow the detection 2% infected CD4 T lymphocytes after 2 days of infection.
Twenty-five microliters of various dilutions of Mabs 515H7, c515H7 and 301aE5 were incubated for 1 h at 37° C. with 25 μl of virus. Human PBMC (25 μl) at 20×10^6 cells/ml were added to the Mab/virus mixture in a 96-well plate (U-bottom, Costar 3599) and cultured for 36 h in RPMI 1640 10% FCS and 20 U/ml IL-2 (R&D Systems, Minneapolis, Minn.).
After 2 days of culture, HIV-infected lymphocytes were detected by intracellular staining of viral p24 Ag. Cells were fixed and permeabilized using both Cytofix/Cytoperm and Perm/Wash kits (BD Biosciences) according to the manufacturer and stained with a fluorescent anti-p24 Mab (FITC- or PE-anti-p24, clone KC57; Beckman Coulter/Immunotech, Hialeah, Fla.) used at a 1/160 dilution in Perm/Wash solution added for 15 min at 4° C. After washing in PBS with 3% FBS, PBMC were diluted in 300 μl of PBS before flow cytometry analysis (LSRII; BD Biosciences) with DIVA software (BD Biosciences). The percentage of p24-positive cells in the different samples was determined by gating 20,000 events on a living cell population identified by forward- and side-scatter parameters. The living cell subsets were analyzed with the live/dead solution kit (Invitrogen). The p24 Ag-positive value was obtained after subtraction of background events in mock-infected cells.
The percent of neutralization was defined as the reduction of p24-positive cells compared with control infected wells with no Mab. The neutralizing titer was defined as the concentration of antibody (interpolated between successive dilutions performed in triplicate) that allows a 90% decrease in the percentage of infected cells.

Residue numbers refer to the chain shown, from its start.

T1 sequence (P61073 whole entry): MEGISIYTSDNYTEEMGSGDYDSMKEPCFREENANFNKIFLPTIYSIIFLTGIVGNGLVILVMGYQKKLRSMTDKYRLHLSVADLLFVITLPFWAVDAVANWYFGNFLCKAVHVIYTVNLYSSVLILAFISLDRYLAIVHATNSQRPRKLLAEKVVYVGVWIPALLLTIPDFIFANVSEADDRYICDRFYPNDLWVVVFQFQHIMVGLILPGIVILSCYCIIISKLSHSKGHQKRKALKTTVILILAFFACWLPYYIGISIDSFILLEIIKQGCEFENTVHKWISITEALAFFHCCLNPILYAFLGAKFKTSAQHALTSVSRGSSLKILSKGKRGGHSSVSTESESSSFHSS

B1: 515H7: murine anti-CXCR4 monoclonal antibody; light chain variable domain SEQ ID No. 7, heavy chain variable domain SEQ ID No. 8 (antibody, listed as Mus musculus, V domains shown)
VH: EVNLVESGGGLVQPGGSLRLSCATSGFTFTDNYMSWVRQPPGKALEWLGFIRNKANGYTTDYSASVRGRFTISRDNSQSILYLQMNALRAEDSATYYCARDVGSNYFDYWGQGTTLTVSS
VL: DIVMSQSPSSLAVSAGEKVTMSCKSSQSLFNSRTRKNYLAWYQQKPGQSPKLLIYWASARDSGVPARFTGSGSETYFTLTISRVQAEDLAVYYCMQSFNLRTFGGGTKLEIK
B1: in assay [1], the “binding to human CXCR4-NIH3T3 transfected cell line (in words)” value (“binding” below) is listed as “bind specifically” and the “NIH3T3-CXCR4 (MFI)” value amounted to 2752. Moreover, in assay [2], the “inhibition of the SDF-1-induced calcium signal (in words)” value is listed as “strong inhibition”. In assay [3], the “inhibition of HIV-1 X4 MN primary isolate replication in PBMC (in words)” value (“inhibition … in PBMC (in words)” for short) is “able to inhibit”, the “MN % inhibition of infected cells 80” value worked out at 1.5 and the “MN % inhibition of infected cells 90” value is 10.

B2: c515H7: chimeric antibody 515H7: murine variable domains fused to human Ckappa and IgG1/IgG2/IgG4 constant domains; isotype tested not stated (antibody, V domains shown)
VH: B1 VH
VL: B1 VL
As for B2, the “binding” value in assay [1] is recorded as “bound specifically”. For the same molecule, in assay [2], the “inhibition of the SDF-1-induced calcium signal (in words)” value is listed as “strong inhibition”. Besides, in assay [3], the “inhibition … in PBMC (in words)” value is “able to inhibit”, the “MN % inhibition of infected cells 80” value is on record as 1 and the “MN % inhibition of infected cells 90” value was 15.

B3: 301aE5: murine anti-CXCR4 monoclonal antibody; light chain variable domain SEQ ID No. 34, heavy chain variable domain SEQ ID No. 35 (antibody, listed as Mus musculus, V domains shown)
VH: QVQLKESGPGLVAPSQSLSITCTVSGFSLTDYGVYWVRQPPGKGLEWLGMIWGDGTTDYNSALKSRLSISKDNSKSQVFLKMNTLQTDDTARYYCARGRQFGFDYWGQGTTLTVSS
VL: B1 VL with S22R, Y55F, A59I, D61E, A66D, E74G, Y76D, R83S, M95K, F98Y
Regarding B3, in assay [1], the “binding” value is “bind specifically” and the “NIH3T3-CXCR4 (MFI)” value is given as 1367. Moreover, the “inhibition of the SDF-1-induced calcium signal (in words)” value in assay [2] is “partial inhibition”. In assay [3], the “inhibition … in PBMC (in words)” value is listed as “able to inhibit”, the “MN % inhibition of infected cells 80” value worked out at 150 and the “MN % inhibition of infected cells 90” value is reported as over 150.
